Experiments:
[1] = biological target: T1, QTRT1 (catalytic subunit of TGT);QTRT2 (accessory subunit of TGT) (Mus musculus;Mus musculus, UniProt Q9JMA2;B8ZXI1 1-403;1-415, |); assay: MST; no 9dG; MST: 20 mM HEPES pH 7.5, 75 mM NaCl, 1 mM MgCl2, 0.025% Tween 20, 2 mM DTT, 50 nM Cy5-tRNA, 25 C, +/-100 uM 9dG; EMSA: same buffer without Tween, 100 uM 9dG, 200 nM tRNA, 4 C, 6% native gel; settings: protein: recombinant;recombinant, copies: 1;1, label: Cy5-cytosine incorporated during transcription (MST, EMSA)
T1 sequence (Q9JMA2 whole entry, chain 1 of 2): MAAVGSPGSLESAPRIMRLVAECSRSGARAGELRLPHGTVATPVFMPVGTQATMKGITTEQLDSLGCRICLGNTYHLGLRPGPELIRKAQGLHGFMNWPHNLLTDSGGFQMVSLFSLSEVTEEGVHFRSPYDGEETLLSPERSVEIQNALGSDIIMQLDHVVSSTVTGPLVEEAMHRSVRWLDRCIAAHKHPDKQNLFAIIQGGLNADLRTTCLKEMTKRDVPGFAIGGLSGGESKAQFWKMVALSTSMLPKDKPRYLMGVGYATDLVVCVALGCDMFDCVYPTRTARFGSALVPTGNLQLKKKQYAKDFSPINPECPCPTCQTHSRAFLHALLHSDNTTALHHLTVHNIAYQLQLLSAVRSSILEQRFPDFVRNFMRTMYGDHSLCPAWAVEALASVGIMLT
T1 sequence (B8ZXI1 whole entry, chain 2 of 2): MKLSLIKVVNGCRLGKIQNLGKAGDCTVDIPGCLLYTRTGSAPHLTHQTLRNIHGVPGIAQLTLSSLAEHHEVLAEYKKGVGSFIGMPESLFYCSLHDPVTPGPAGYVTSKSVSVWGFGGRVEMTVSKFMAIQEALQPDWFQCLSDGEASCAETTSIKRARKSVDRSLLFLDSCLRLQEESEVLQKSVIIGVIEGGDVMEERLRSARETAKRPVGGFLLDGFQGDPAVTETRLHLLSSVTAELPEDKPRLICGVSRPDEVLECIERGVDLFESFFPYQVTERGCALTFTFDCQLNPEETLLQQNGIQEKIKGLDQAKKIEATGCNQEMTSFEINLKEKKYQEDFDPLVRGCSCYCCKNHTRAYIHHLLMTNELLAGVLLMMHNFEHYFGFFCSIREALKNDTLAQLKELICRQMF

[2] = biological target: T1, QTRT1 (catalytic subunit of TGT);QTRT2 …; assay: MST; 100 uM 9-deazaguanine; apparent Kd (covalent trapping; review file cites 1.2); MST: 20 mM HEPES pH 7.5, 75 mM NaCl, 1 mM MgCl2, 0.025% Tween 20, 2 mM DTT, 50 nM Cy5-tRNA, 25 C, +/-100 uM 9dG; EMSA: same buffer without Tween, 100 uM 9dG, 200 nM tRNA, 4 C, 6% native gel; settings: protein: recombinant;recombinant; copies: 1;1; label: Cy5-cytosine incorporated during transcription (MST, EMSA); tRNA cloverleaf
[3] = biological target: T1, QTRT1 (catalytic subunit of TGT);QTRT2 …; assay: MST; 100 uM 9-deazaguanine; apparent Kd (covalent trapping); MST: 20 mM HEPES pH 7.5, 75 mM NaCl, 1 mM MgCl2, 0.025% Tween 20, 2 mM DTT, 50 nM Cy5-tRNA, 25 C, +/-100 uM 9dG; EMSA: same buffer without Tween, 100 uM 9dG, 200 nM tRNA, 4 C, 6% native gel; settings: protein: recombinant;recombinant; copies: 1;1; label: Cy5-cytosine incorporated during transcription (MST, EMSA); tRNA cloverleaf with intron in anticodon loop
[4] = biological target: T1, QTRT1 (catalytic subunit of TGT);QTRT2 …; assay: MST; no 9dG; value from peer review file (main text calls 2-1 slightly weaker); MST: 20 mM HEPES pH 7.5, 75 mM NaCl, 1 mM MgCl2, 0.025% Tween 20, 2 mM DTT, 50 nM Cy5-tRNA, 25 C, +/-100 uM 9dG; EMSA: same buffer without Tween, 100 uM 9dG, 200 nM tRNA, 4 C, 6% native gel; settings: protein: recombinant;recombinant; copies: 1;1; label: Cy5-cytosine incorporated during transcription (MST); tRNA cloverleaf with intron in anticodon loop
[5] = biological target: T1, QTRT1 (catalytic subunit of TGT);QTRT2 …; assay: MST; 9-deazaguanine; apparent Kd from peer review file; MST: 20 mM HEPES pH 7.5, 75 mM NaCl, 1 mM MgCl2, 0.025% Tween 20, 2 mM DTT, 50 nM Cy5-tRNA, 25 C, +/-100 uM 9dG; EMSA: same buffer without Tween, 100 uM 9dG, 200 nM tRNA, 4 C, 6% native gel; settings: protein: recombinant;recombinant; copies: 1;1; label: Cy5-cytosine incorporated during transcription (MST); tRNA cloverleaf with intron in anticodon loop

B1: m_tRNATyr (mature, GUA) (structured_RNA)
RNA: GGCCUUCGAUAGCUCAGUUGGUAGAGCGGAGGACUGUAGAUCCUUAGGUCGCUGGUUCGAAUCCGGCUCGAAGGA
modifications: none (unmodified transcript)
- Kd ([1]; tRNA cloverleaf): 2400 ± 700 nM
- Kd [2]: 1100 ± 300 nM

B2: m_pre-tRNATyr 1-4 (intron-containing) (structured_RNA)
RNA: GGCCUUCGAUAGCUCAGUUGGUAGAGCGGAGGACUGUAGGUCAUUGUUCUAGAAAUCCUUAGGUCGCUGGUUCGAAUCCGGCUCGAAGGA
modifications: none (unmodified transcript)
- Kd ([1]; tRNA cloverleaf with intron in anticodon loop): 6000 ± 700 nM
- Kd [3]: 2400 ± 200 nM

B3: m_pre-tRNATyr 2-1 (intron-containing) (structured_RNA)
RNA: GGCCUUCGAUAGCUCAGUUGGUAGAGCGGAGGACUGUAGUCAGUACAAUAUGGUAAUCCUUAGGUCGCUGGUUCGAUUCCGGCUCGAAGGA
modifications: none (unmodified transcript)
- Kd [4]: 2700 nM
- Kd [5]: 1400 nM

From PMC12313893, “Queuosine is incorporated into precursor tRNA before splicing”
